The results in this text go back to PMC8263017, “Cryo-EM Determination of Eravacycline-Bound Structures of the Ribosome and the Multidrug Efflux Pump AdeJ of Acinetobacter baumannii” (mBio, 2021).

Test [1] concerns the target Acinetobacter drug efflux (Ade)J multidrug efflux pump of A. baumannii Ab0057 (Acinetobacter baumannii Ab0057) (UniProt Q2FD94). The experiment in a line: cryo-EM structure; single-particle cryo-EM of 10 μM AdeJ in lipidic nanodiscs, incubated with 20 μM eravacycline for 1 h; two classes in one sample (apo-AdeJ trimer and AdeJ-Era trimer); 20 mM Tris-HCl pH 7.5, 100 mM NaCl.

The target of test [2] is T1, AdeJ multidrug efflux pump (Acinetobacter baumannii, UniProt Q2FD94).
T1 construct: full-length, 1,058 residues (1,046 built per protomer); N-terminal 6xHis tag (pET15b); expressed in E. coli BL21(DE3) delta-acrB; DDM-purified, reconstituted in MSP 1E3D1 lipidic nanodiscs; homotrimer
The experiment in a line: single-particle cryo-EM structure ([…] A). The conditions noted are these: 10 uM AdeJ-nanodisc with 20 uM eravacycline (dihydrochloride), 1 h; distal drug-binding site of the binding-state protomer, one molecule per trimer; no Mg2+ seen at the site.

As to “Acinetobacter drug efflux (Ade)J multidrug efflux pump of A. baumannii Ab0057 (from UniProt Q2FD94 1-1058) (natural protein)”, the stoichiometry N – broadly, the number of molecules, sites or subunits per partner or assembly – in test [1] worked out at 3. Regarding `CN(C)[C@@H]1C(=O)C(C(N)=O)=C(O)[C@@]2(O)C(=O)C3=C(O)c4c(O)c(NC(=O)CN5CCCC5)cc(F)c4C[C@H]3C[C@@H]12` [eravacycline], the “single-particle cryo-EM structure (2.86 A)” value in test [2] was “large density corresponds to the bound Era drug located at the distal multidrug-binding site”.
